Test [1] has as its target recombinant PD-L1 protein (PD-1 ligand), species not stated. Put plainly: ELISA. Background: An ELISA detects its analyte on a solid surface through an enzyme-linked reagent.
For test [2] the target is unchanged. As to the kind of experiment: MST.

A word on the Kd: it is the constant that tells how readily two partners part at equilibrium.

recombinant PD-L1 protein (PD-1 ligand), species not stated, sequence (Q9NZQ7 whole entry): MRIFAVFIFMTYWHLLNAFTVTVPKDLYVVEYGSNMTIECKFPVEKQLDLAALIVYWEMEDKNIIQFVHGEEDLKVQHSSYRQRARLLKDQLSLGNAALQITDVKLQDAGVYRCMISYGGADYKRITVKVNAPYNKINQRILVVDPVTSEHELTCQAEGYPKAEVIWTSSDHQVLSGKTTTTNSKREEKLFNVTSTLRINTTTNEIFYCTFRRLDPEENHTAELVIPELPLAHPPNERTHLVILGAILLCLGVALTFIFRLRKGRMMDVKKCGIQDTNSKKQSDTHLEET

B1: huHF-αPD-L1 HCDR3 (CD loop), Examples 1-6 (designed binder)
chain: MTTASTSQVRQNYHQDSEAAINRQINLELYASYVYLSMSYYFDRDDVALKNFAKYFLHQSHEEREHAEKLMKLQNQRGGRIFLQDIKKPDCDDWESGLNAMECALHLEKNVNQSLLELHKLATDKNDSGHGYSYGAFDYPHLCDFIETHYLNEQVKAIKELGDHVTNLRKMGAPESGLAEYLFDKHTLGDSDNES
As to B1, the Kd in test [1] came out at 71.2 nM.

B2: huHF-TPP1 (AB loop) (designed binder, not shown: small tags and cut ends)
chain: MTTASTSQVRQNYHQDSEAAINRQINLELYASYVYLSMSYYFDRDDSGQYASYHCWCWRDPGRSGGSKVALKNFAKYFLHQSHEEREHAEKLMKLQNQRGGRIFLQDIKKPDCDDWESGLNAMECALHLEKNVNQSLLELHKLATDKNDPHLCDFIETHYLNEQVKAIKELGDHVTNLRKMGAPESGLAEYLFDKHTLGDSDNES
On to B2, for which, in test [2], the Kd was 72.1 nM.

B3: huHF-TPP1 (CD loop) (designed binder, not shown: small tags and cut ends)
chain: MTTASTSQVRQNYHQDSEAAINRQINLELYASYVYLSMSYYFDRDDVALKNFAKYFLHQSHEEREHAEKLMKLQNQRGGRIFLQDIKKPDCDDWESGLNAMECALHLEKNVNQSLLELHKLATDKNDSGQYASYHCWCWRDPGRSGGSKPHLCDFIETHYLNEQVKAIKELGDHVTNLRKMGAPESGLAEYLFDKHTLGDSDNES
For B3, in test [2], the dissociation constant (Kd) is 115 nM.

(Values after US20240148898A1.)
